# Reference: paper PMC7835349 (Communications Biology, 2021)
# Where “and” joins values, the source holds several entries; their conditions need not be identical. Equal entries are not always repeated. Entries after “also recorded” stand apart in the source; their conditions may differ.
# Tests used:
# [1] = Tumour pharmacokinetics (released and total AZD4320) in RS4;11 tumours; format: in vivo, C.B-17 SCID mouse; settings: for Concentration of Released AZD4320 in Tumour, Mean / Concentration of Released AZD4320 in Tumour, individual samples (Fig 5g/5h) / Concentrations of Total AZD4320 in Tumour, individual samples: 10 mg/kg AZD4320 equivalent; for Concentration of Released AZD4320 in Tumour, individual samples (Fig 5g/5h) / Concentrations of Total AZD4320 in Tumour, individual samples / Concentration of total AZD4320 in tumour: listed as SPL-8977; for Mean concentration of total AZD4320 in tumour / Concentration of total AZD4320 in tumour: tumour tissue; for Mean concentration of total AZD4320 in tumour: mean of 3 samples
# Excerpt: For tumour measurements, tumours were harvested, split into smaller pieces and snap frozen in liquid nitrogen. Frozen tumour samples were subsequently weighed and then homogenised for both ‘released’ and ‘total’ AZD4320. For ‘released’ AZD4320, samples were homogenised on ice with an equal volume (w/v) of blank plasma containing 0.2 M citric acid. The samples were then processed according to the aforementioned plasma approach. For ‘total’ AZD4320, samples were homogenised with an equal volume of plasma (w/v) and then processed according to the aforementioned ‘total’ approach.
# Sample analyses were performed in batches containing study samples, calibration standards at 10 concentration levels, QC samples at three concentration levels in duplicate and blank samples. The analytical run acceptance criteria for calibration standards and QC samples was that at least 75% of back-calculated concentrations for calibration standards and at least 2/3 of the QC samples (at least 50% at each concentration level) should be within ±20% (±25% at LLOQ) from nominal value.
# Female C.B.−17 SCID mice were purchased from Charles River Laboratories. Mice were 5–8 weeks old at the time of tumour implantation. All xenograft studies were conducted at our Association for the Assessment and Accreditation of Laboratory Animal Care accredited facility in Waltham, MA in accordance with ethical regulations described in the guidelines established by the internal Institutional Animal Care and Use Committee. The dendrimer conjugates were formulated in citrate/phosphate buffer pH 5.0, diluted 1:10 with 5% glucose containing 1% w/v Kolliphor HS15, and AZD4320 was formulated in 30% HP-β-CD and dosed as a weekly intravenous (IV) administration at a volume of 5 ml/kg at the indicated doses. Five million RS4;11, five million SUDHL-4 or five million OCI-LY-10 cells were injected subcutaneously in the right flank of mice in a volume of 0.1 ml. Tumour volumes (measured by caliper), animal body weight, and tumor condition were recorded twice weekly for the duration of the study. The tumour volume was calculated (taking length to be the longest diameter across the tumour and width to be the corresponding perpendicular diameter) using the formula: length (mm) x width (mm)^2/0.52. For efficacy studies, mice were randomized based on tumour volumes using stratified sampling and enrolled into control and treatment groups. Tumour growth inhibition from the start of treatment was quantified by measuring the difference in tumour volume between control and treated groups. Survival analysis was evaluated using Mantel-Cox test. Tumours were also taken for bioanalysis.
# [2] = system: telemetered rats; test: Conscious rat telemetry (QRS amplitude, blood pressure, tolerability); settings: telemetered rat; AZD4320 10 mg/kg, conjugates 30 mg/kg IV;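 further: male Han Wistar rats carrying implanted telemetry transmitters, with ECG and arterial pressure recorded continuously while unrestrained in their home cage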
# Excerpt: Male Han Wistar rats were implanted with HD‐S11 transmitters (Data Sciences International, St. Paul, MN USA) under isoflurane anaesthesia, the telemetry transmitter was placed in the peritoneal cavity, the arterial blood pressure catheter was placed in the terminal abdominal aorta and the ECG electrodes were sutured, one at the dorsal surface of the xiphoid process and one at the anterior mediastinum, close to the right atrium[42]. Animals were allowed to recover for at least 2 weeks and were around 2–3 months at the time of experimentation. The animals were pair‐housed in standard rat cages with a non‐instrumented companion throughout the study. Cages were prepared with bedding material and enrichment.
# Telemetry recordings took place in the home cage. […] The animals were removed from the cage temporarily for dosing and blood sampling. Animals were not subject to restraint except where dosing and blood sampling was performed. Data acquisition used Dataquest Open A.R.T.™ with HEM software version 4.2 (Notocord Inc).
# For evaluation of AZD4320, n = 8 rats received single doses of 0 (vehicle: 30% Kleptose, pH9) or 10 mg/kg AZD4320, administered as a 30-min intravenous infusion. A cross-over study design was used, with an interval of 7 days between treatments.
# Data for all parameters were collected continuously during the recording period. The continuous data from each animal was binned into chosen time intervals of varying length and averaged to generate a single data point for each reported nominal time. Each reported nominal timepoint was then averaged across each of the animals tested for each dose level.
# [3] = system: cleaved caspase-3 (CC3); test: Cleaved caspase-3 in RS4;11 tumours by MSD ELISA; format: in vivo, C.B-17 SCID mouse
# Protocol: Tumours were excised, snap frozen in liquid nitrogen and stored at –80 °C. Tumours were homogenised in lysis buffer containing protease and phosphatase inhibitors, protein concentration determined by Pierce BCA Protein Assay Kit and diluted in lysis buffer to a protein concentration of 0.4 μg/μL. Cleaved caspase-3 (CC3) was measured using the mesoscale cleaved caspase-3 (Asp175) assay whole cell lysate kit according to manufacturer’s instructions. Induction of CC3 was expressed as fold change of treated tumours over vehicle control.
# [4] = RS4;11, single dose AZD0466 34 mg/kg, 3 h, 34 mg/kg
# [5] = RS4;11, single dose AZD0466 34 mg/kg, 8 h, 34 mg/kg
# [6] = RS4;11, single dose AZD0466 34 mg/kg, 24 h, 34 mg/kg
# [7] = RS4;11, single dose AZD0466 34 mg/kg, 48 h, 34 mg/kg
# [8] = RS4;11, single dose AZD0466 34 mg/kg, 72 h, 34 mg/kg
# [9] = RS4;11, single dose AZD0466 103 mg/kg, 3 h, 103 mg/kg
# [10] = RS4;11, single dose AZD0466 103 mg/kg, 8 h, 103 mg/kg
# [11] = RS4;11, single dose AZD0466 103 mg/kg, 24 h, 103 mg/kg
# [12] = RS4;11, single dose AZD0466 103 mg/kg, 48 h, 103 mg/kg
# [13] = RS4;11, single dose AZD0466 103 mg/kg, 72 h, 103 mg/kg
substance,measurement,setting,value
AZD4320-MIDA-PEG2100 [AZD0466],"Concentration of Released AZD4320 in Tumour, Mean",[1]; 1 hr,0.0081 µg/mL
same,"Concentration of Released AZD4320 in Tumour, individual samples (Fig 5g/5h)",[1]; 1 hr,0.0082 µg/mL and 0.0112 µg/mL and 0.0047 µg/mL
same,"Concentration of Released AZD4320 in Tumour, Mean",[1]; 3 hr,0.0151 µg/mL
same,"Concentration of Released AZD4320 in Tumour, individual samples (Fig 5g/5h)",[1]; 3 hr,0.0160 µg/mL and 0.0188 µg/mL and 0.0104 µg/mL
same,"Concentration of Released AZD4320 in Tumour, Mean",[1]; 9 hr,0.109 µg/mL
same,"Concentration of Released AZD4320 in Tumour, individual samples (Fig 5g/5h)",[1]; 9 hr,0.1788 µg/mL and 0.0714 µg/mL and 0.0780 µg/mL
same,"Concentrations of Total AZD4320 in Tumour, individual samples",[1]; 9 hr,1.886 µg/mL and 0.831 µg/mL and 0.866 µg/mL
same,"Concentration of Released AZD4320 in Tumour, Mean",[1]; 20 hr,0.244 µg/mL
same,"Concentration of Released AZD4320 in Tumour, individual samples (Fig 5g/5h)",[1]; 20 hr,0.2149 µg/mL and 0.2501 µg/mL and 0.2679 µg/mL
same,"Concentration of Released AZD4320 in Tumour, Mean",[1]; 48 hr,0.389 µg/mL
same,"Concentration of Released AZD4320 in Tumour, individual samples (Fig 5g/5h)",[1]; 48 hr,0.4939 µg/mL and 0.1234 µg/mL and 0.5502 µg/mL
same,"Concentrations of Total AZD4320 in Tumour, individual samples",[1]; 48 hr,1.152 µg/mL and 0.319 µg/mL and 1.257 µg/mL
same,"Concentration of Released AZD4320 in Tumour, Mean",[1]; 72 hr,0.462 µg/mL
same,"Concentration of Released AZD4320 in Tumour, individual samples (Fig 5g/5h)",[1]; 72 hr,0.2902 µg/mL and 0.6115 µg/mL and 0.4850 µg/mL
same,"Tumor PK Released AZD4320, individual tumours",[1]; [4],16 ng/g and 18.8 ng/g and 10.4 ng/g
same,"Tumor PK Total AZD4320, individual tumours",[1]; [4],621 ng/g and 697 ng/g and 376 ng/g
same,"Tumor PK Released AZD4320, individual tumours",[1]; [5],179 ng/g and 71.4 ng/g and 78 ng/g
same,"Tumor PK Total AZD4320, individual tumours",[1]; [5],1886 ng/g and 831 ng/g and 866 ng/g
same,"Tumor PK Released AZD4320, individual tumours",[1]; [6],215 ng/g and 250 ng/g and 268 ng/g
same,"Tumor PK Total AZD4320, individual tumours",[1]; [6],926 ng/g and 923 ng/g and 1118 ng/g
same,"Tumor PK Released AZD4320, individual tumours",[1]; [7],494 ng/g and 123 ng/g and 550 ng/g
same,"Tumor PK Total AZD4320, individual tumours",[1]; [7],1152 ng/g and 319 ng/g and 1257 ng/g
same,"Tumor PK Released AZD4320, individual tumours",[1]; [8],290 ng/g and 612 ng/g and 485 ng/g
same,"Tumor PK Total AZD4320, individual tumours",[1]; [8],536 ng/g and 983 ng/g and 719 ng/g
same,"Tumor PK Released AZD4320, individual tumours",[1]; [9],227 ng/g and 79 ng/g and 90 ng/g
same,"Tumor PK Total AZD4320, individual tumours",[1]; [9],5852 ng/g and 2518 ng/g and 2703 ng/g
same,"Tumor PK Released AZD4320, individual tumours",[1]; [10],1407 ng/g and 1218 ng/g and 972 ng/g
same,"Tumor PK Total AZD4320, individual tumours",[1]; [10],14358 ng/g and 9822 ng/g and 9418 ng/g
same,"Tumor PK Released AZD4320, individual tumours",[1]; [11],1730 ng/g and 1595 ng/g and 1484 ng/g
same,"Tumor PK Total AZD4320, individual tumours",[1]; [11],4335 ng/g and 4133 ng/g and 3920 ng/g
same,"Tumor PK Released AZD4320, individual tumours",[1]; [12],3581 ng/g and 4025 ng/g and 5214 ng/g
same,"Tumor PK Total AZD4320, individual tumours",[1]; [12],6225 ng/g and 5604 ng/g and 9523 ng/g
same,"Tumor PK Released AZD4320, individual tumours",[1]; [13],3295 ng/g and 5783 ng/g and 7049 ng/g
same,"Tumor PK Total AZD4320, individual tumours",[1]; [13],6132 ng/g and 7039 ng/g and 8246 ng/g
same,Mean concentration of total AZD4320 in tumour,[1]; 1 hr,0.536 µg/mL
same,Concentration of total AZD4320 in tumour,[1]; 1 hr,0.553 µg/mL and 0.665 µg/mL and 0.390 µg/mL
same,Mean concentration of total AZD4320 in tumour,[1]; 3 hr,0.565 µg/mL
same,Concentration of total AZD4320 in tumour,[1]; 3 hr,0.621 µg/mL and 0.697 µg/mL and 0.376 µg/mL
same,Mean concentration of total AZD4320 in tumour,[1]; 9 hr,1.194 µg/mL
same,Mean concentration of total AZD4320 in tumour,[1]; 20 hr,0.989 µg/mL
same,Concentration of total AZD4320 in tumour,[1]; 20 hr,0.926 µg/mL and 0.923 µg/mL and 1.118 µg/mL
same,Mean concentration of total AZD4320 in tumour,[1]; 48 hr,0.909 µg/mL
same,Mean concentration of total AZD4320 in tumour,[1]; 72 hr,0.746 µg/mL
same,Concentration of total AZD4320 in tumour,[1]; 72 hr,0.536 µg/mL and 0.983 µg/mL and 0.719 µg/mL
same,effect on QRS amplitude,[2],no effect on QRS amplitude; also recorded: no reduction in QRS amplitude; also recorded: negligible effect on QRS amplitude
same,"CC3 PD fold over vehicle, individual tumours","[3]; RS4;11, single dose AZD0466 34 mg/kg (10mg/kg AZD4320), 3 hr",1.1 fold over vehicle (2×) and 0.9 fold over vehicle
same,"CC3 PD fold over vehicle, individual tumours","[3]; RS4;11, single dose AZD0466 34 mg/kg (10mg/kg AZD4320), 8 hr",1.1 fold over vehicle and 1.5 fold over vehicle and 1 fold over vehicle
same,"CC3 PD fold over vehicle, individual tumours","[3]; RS4;11, single dose AZD0466 34 mg/kg (10mg/kg AZD4320), 24 hr",12.2 fold over vehicle and 4.6 fold over vehicle and 5.3 fold over vehicle
same,"CC3 PD fold over vehicle, individual tumours","[3]; RS4;11, single dose AZD0466 34 mg/kg (10mg/kg AZD4320), 48 hr",8.7 fold over vehicle and 9 fold over vehicle and 11 fold over vehicle
same,"CC3 PD fold over vehicle, individual tumours","[3]; RS4;11, single dose AZD0466 34 mg/kg (10mg/kg AZD4320), 72 hr",1.8 fold over vehicle and 1.4 fold over vehicle and 2.1 fold over vehicle
same,"CC3 PD fold over vehicle, individual tumours","[3]; RS4;11, single dose AZD0466 103 mg/kg (30mg/kg AZD4320), 3 hr",6.8855 fold over vehicle and 4.506 fold over vehicle and 6.287 fold over vehicle
same,"CC3 PD fold over vehicle, individual tumours","[3]; RS4;11, single dose AZD0466 103 mg/kg (30mg/kg AZD4320), 8 hr",52.0454 fold over vehicle and 56.5349 fold over vehicle and 45.3617 fold over vehicle
same,"CC3 PD fold over vehicle, individual tumours","[3]; RS4;11, single dose AZD0466 103 mg/kg (30mg/kg AZD4320), 24 hr",82.2669 fold over vehicle and 79.7603 fold over vehicle and 78.3412 fold over vehicle
same,"CC3 PD fold over vehicle, individual tumours","[3]; RS4;11, single dose AZD0466 103 mg/kg (30mg/kg AZD4320), 48 hr",33.7478 fold over vehicle and 42.9825 fold over vehicle and 23.216 fold over vehicle
same,"CC3 PD fold over vehicle, individual tumours","[3]; RS4;11, single dose AZD0466 103 mg/kg (30mg/kg AZD4320), 72 hr",7.7976 fold over vehicle and 4.512 fold over vehicle and 6.025 fold over vehicle
